From PMC7847308, “Nanoscopic anatomy of dynamic multi-protein complexes at membranes resolved by graphene-induced energy transfer” (eLife, 2021)

Experiments:
Details in all cases: both partners purified
[1] = target: T1, HOPS complex with Vps18 C-terminally fused to yEGFP (S. cerevisiae, UniProt P38959 1-992; Q07468 1-1049; P12868 1-1029; P27801 1-918; Q03308 1-798; P20795 …); experiment: confocal fluorescence imaging and FLIM of recruitment to supported lipid layers; 50 nM yEGFP-fused HOPS added for 5 min at room temperature to DOPC bilayers on glass or monolayers on graphene loaded with 150 nM pYpt7-GTP; washed 5 times with HBS
T1 construct: Vps41, HOPS subunit, S. cerevisiae; Vps39, HOPS subunit, S. cerevisiae; Vps11, HOPS subunit, S. cerevisiae; Vps18, HOPS subunit, S. cerevisiae; Vps16, HOPS subunit, S. cerevisiae; Vps33, HOPS subunit, S. cerevisiae; also called HOPS Vps18-yEGFP; yEGFP-tagged HOPS; source: S. cerevisiae, overexpressed, purified (IgG Sepharose, TEV elution); copies: + + + + +

[2] = target: T2, HOPS complex with Vps11 C-terminally fused to yEGFP (S. cerevisiae, UniProt P38959 1-992; Q07468 1-1049; P12868 1-1029; P27801 1-918; Q03308 1-798; P20795 …); experiment: as above
T2 construct: Vps41, HOPS subunit, S. cerevisiae; Vps39, HOPS subunit, S. cerevisiae; Vps11, HOPS subunit, S. cerevisiae; Vps18, HOPS subunit, S. cerevisiae; Vps16, HOPS subunit, S. cerevisiae; Vps33, HOPS subunit, S. cerevisiae; In the single-molecule experiment labelled with 50 pM Dy647-coupled anti-GFP nanobody; also called HOPS Vps11-yEGFP; HOPS Vps11; source: S. cerevisiae, overexpressed, purified (IgG …)

[3] = target: T3, HOPS complex with Vps39 C-terminally fused to yEGFP (S. cerevisiae, UniProt P38959 1-992; Q07468 1-1049; P12868 1-1029; P27801 1-918; Q03308 1-798; P20795 …); experiment: as above
T3 construct: Vps41, HOPS subunit, S. cerevisiae; Vps39, HOPS subunit, S. cerevisiae; Vps11, HOPS subunit, S. cerevisiae; Vps18, HOPS subunit, S. cerevisiae; Vps16, HOPS subunit, S. cerevisiae; Vps33, HOPS subunit, S. cerevisiae; also called HOPS Vps39-yEGFP; yEGFP-tagged HOPS; source: S. cerevisiae, overexpressed, purified (IgG Sepharose, TEV elution); copies: + + + + +

[4] = target: T4, HOPS complex with Vps33 C-terminally fused to yEGFP (S. cerevisiae, UniProt P38959 1-992; Q07468 1-1049; P12868 1-1029; P27801 1-918; Q03308 1-798; P20795 …); experiment: as above
T4 construct: Vps41, HOPS subunit, S. cerevisiae; Vps39, HOPS subunit, S. cerevisiae; Vps11, HOPS subunit, S. cerevisiae; Vps18, HOPS subunit, S. cerevisiae; Vps16, HOPS subunit, S. cerevisiae; Vps33, HOPS subunit, S. cerevisiae; In the single-molecule experiment labelled with 50 pM Dy647-coupled anti-GFP nanobody; also called HOPS Vps33-yEGFP; HOPS Vps33; source: S. cerevisiae, overexpressed, purified (IgG …)

[5] = target: T5, HOPS complex with Vps16 C-terminally fused to yEGFP (S. cerevisiae, UniProt P38959 1-992; Q07468 1-1049; P12868 1-1029; P27801 1-918; Q03308 1-798; P20795 …); experiment: as above
T5 construct: Vps41, HOPS subunit, S. cerevisiae; Vps39, HOPS subunit, S. cerevisiae; Vps11, HOPS subunit, S. cerevisiae; Vps18, HOPS subunit, S. cerevisiae; Vps16, HOPS subunit, S. cerevisiae; Vps33, HOPS subunit, S. cerevisiae; also called HOPS Vps16-yEGFP; HOPS (Vps16-yEGFP); source: S. cerevisiae, overexpressed, purified (IgG Sepharose, TEV elution); copies: + + + + +

[6] = target: T6, Mon1-Ccz1 complex (S. cerevisiae, UniProt P53129 1-644; P38273 1-704); experiment: GIET fluorescence lifetime (FLIM) on graphene-supported lipid monolayers; 200 nM mNeon-pYpt7-GTP anchored in lipid layers on graphene and glass; 100 nM Mon1-Ccz1 or HOPS added for 5 min at room temperature, washed 8 times with HBS; lifetime ratio of mNeon
T6 construct: Mon1, S. cerevisiae; chromosomal locus under the GAL1 promoter; Ccz1, S. cerevisiae; chromosomal locus under the GAL1 promoter, TAP-tagged; Eluted from IgG beads by TEV cleavage; also called GEF; source: S. cerevisiae, overexpressed, purified (IgG Sepharose, TEV elution)
T6 sequence (looked up) 1: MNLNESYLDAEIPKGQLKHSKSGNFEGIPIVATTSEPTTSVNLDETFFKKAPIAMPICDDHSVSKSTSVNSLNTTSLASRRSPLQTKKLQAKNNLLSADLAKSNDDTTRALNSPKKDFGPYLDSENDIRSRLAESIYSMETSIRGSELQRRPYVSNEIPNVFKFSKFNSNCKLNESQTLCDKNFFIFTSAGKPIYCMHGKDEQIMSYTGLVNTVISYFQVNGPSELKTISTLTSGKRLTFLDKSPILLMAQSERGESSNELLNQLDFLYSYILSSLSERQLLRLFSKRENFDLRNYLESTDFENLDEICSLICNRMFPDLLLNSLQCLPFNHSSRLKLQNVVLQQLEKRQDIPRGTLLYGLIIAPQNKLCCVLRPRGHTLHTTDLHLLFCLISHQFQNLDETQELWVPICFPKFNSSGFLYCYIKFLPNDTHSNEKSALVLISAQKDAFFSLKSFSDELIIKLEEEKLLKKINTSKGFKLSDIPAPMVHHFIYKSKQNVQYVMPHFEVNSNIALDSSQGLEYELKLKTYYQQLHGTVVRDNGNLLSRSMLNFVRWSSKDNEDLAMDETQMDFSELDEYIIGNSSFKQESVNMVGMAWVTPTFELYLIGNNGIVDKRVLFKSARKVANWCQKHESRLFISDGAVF
T6 sequence (looked up) 2: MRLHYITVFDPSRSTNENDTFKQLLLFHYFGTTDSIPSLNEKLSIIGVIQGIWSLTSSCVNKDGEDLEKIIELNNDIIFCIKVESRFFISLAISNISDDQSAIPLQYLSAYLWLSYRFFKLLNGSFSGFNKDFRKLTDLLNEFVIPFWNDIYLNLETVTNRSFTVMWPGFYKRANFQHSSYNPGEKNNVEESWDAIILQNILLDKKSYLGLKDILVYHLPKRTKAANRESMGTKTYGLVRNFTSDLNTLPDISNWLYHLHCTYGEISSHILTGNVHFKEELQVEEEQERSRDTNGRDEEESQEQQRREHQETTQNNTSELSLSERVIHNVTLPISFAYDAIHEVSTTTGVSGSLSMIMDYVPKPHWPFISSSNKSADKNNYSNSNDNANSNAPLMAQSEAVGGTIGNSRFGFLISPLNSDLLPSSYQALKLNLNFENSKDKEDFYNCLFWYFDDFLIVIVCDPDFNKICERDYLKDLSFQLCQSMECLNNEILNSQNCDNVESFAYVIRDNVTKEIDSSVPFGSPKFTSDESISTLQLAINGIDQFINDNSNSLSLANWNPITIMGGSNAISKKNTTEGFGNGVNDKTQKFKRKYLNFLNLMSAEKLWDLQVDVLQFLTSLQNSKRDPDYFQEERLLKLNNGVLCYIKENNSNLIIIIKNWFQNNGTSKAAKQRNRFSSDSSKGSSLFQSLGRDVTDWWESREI

[7] = target: T7, HOPS complex (S. cerevisiae, UniProt P38959 1-992; Q07468 1-1049; P12868 1-1029; P27801 1-918; Q03308 1-798; P20795 …); experiment: FRAP and confocal imaging on supported lipid bilayers; 200 nM mNeon-pYpt7-GTP anchored in glass-supported lipid bilayers, 100 nM HOPS added; room temperature
T7 construct: Vps41, HOPS subunit, S. cerevisiae; Vps39, HOPS subunit, S. cerevisiae; Vps11, HOPS subunit, S. cerevisiae; Vps18, HOPS subunit, S. cerevisiae; Vps16, HOPS subunit, S. cerevisiae; Vps33, HOPS subunit, S. cerevisiae; 650 kDa heterohexamer; the 3HA follows the GAL1 promoter in the genotype; also called homotypic fusion and vacuole protein sorting complex; untagged HOPS; source: S. cerevisiae, …

Measured: binding result

B1: prenylated Ypt7 (natural protein, S. cerevisiae, UniProt P32939 1-208, looked up)
chain: MSSRKKNILKVIILGDSGVGKTSLMHRYVNDKYSQQYKATIGADFLTKEVTVDGDKVATMQVWDTAGQERFQSLGVAFYRGADCCVLVYDVTNASSFENIKSWRDEFLVHANVNSPETFPFVILGNKIDAEESKKIVSEKSAQELAKSLGDIPLFLTSAKNAINVDTAFEEIARSALQQNQADTEAFEDDYNDAINIRLDGENNSCSC
modifications: C-terminal prenyl (geranylgeranyl) group, added by in vitro prenylation
notes: Ypt7, Rab7-like GTPase of S. cerevisiae; pET24d-GST-TEV-Ypt7 is surmised (the other construct carries a C-terminal His6 tag); GDP-loaded with GDI, GTP-loaded on membranes; also called pYpt7; pYpt7-GTP; source: E. coli BL21 (DE3) Rosetta, purified, prenylated in vitro
binds: [1] | [2] | [3] | [4] | [5]

B2: prenylated mNeonGreen-Ypt7 (natural protein, S. cerevisiae, UniProt P32939 1-208, looked up)
chain: MSSRKKNILKVIILGDSGVGKTSLMHRYVNDKYSQQYKATIGADFLTKEVTVDGDKVATMQVWDTAGQERFQSLGVAFYRGADCCVLVYDVTNASSFENIKSWRDEFLVHANVNSPETFPFVILGNKIDAEESKKIVSEKSAQELAKSLGDIPLFLTSAKNAINVDTAFEEIARSALQQNQADTEAFEDDYNDAINIRLDGENNSCSC
modifications: C-terminal prenyl (geranylgeranyl) group, added by in vitro prenylation
notes: Ypt7, Rab7-like GTPase of S. cerevisiae; GDP-loaded in the complex with GDI; GTP-loaded when anchored in the lipid layers; also called mNeon-pYpt7; mNeon-Ypt7; source: E. coli BL21 (DE3) Rosetta, purified (Glutathione Sepharose, TEV cleavage), prenylated in vitro; not shown: mNeonGreen (via a GGSGx3 linker), N-terminal, kept
binds: [6] | [7]
